Target: zebrafish Ctla-4, HA-tagged (pCDNA3.1-HA-Ctla-4) (zebrafish)
Assay: Western blot under non-reducing and reducing conditions

stoichiometry N: 2
Substance: zebrafish Ctla-4, HA-tagged (pCDNA3.1-HA-Ctla-4) (receptor)
